Test system: six V600E BRAF melanoma cell lines
Experiment: Screening of recombinant RTK ligands for ability to confer resistance to BRAFi (PLX4720) or MEKi (PD184352) (Table 4)
Assay type: cell-based, human
Parameters: ability of recombinant RTK ligand to confer resistance / ability of recombinant RTK ligand to confer resistance (screening value): scale not given here
Method: HGF is the only one that can substantially confer drug resistance to the cell lines.
The complexity of the tumor microenvironment is much greater than an in vitro co-culture system. Therefore, the inventors explored whether the activation of other RTKs could result in a similar resistance as that observed with the activation of MET. To this end, six V600E BRAF melanoma cell lines were tested for their resistance to either BRAFi (PLX4720) or MEKi (PD184352) after the addition of 22 RTK ligands that have the potential of activating almost all known RTKs. […] The activation of a selected subset of these RTKs was confirmed by western blotting and by high throughput tyrosine kinase phosphorylation profiling.

B1: Angiopoietin-1 (protein, UniProt Q15389 16-498, looked up)
Angiopoietin-1: HIGCSNQRRSPENSGRRYNRIQHGQCAYTFILPEHDGNCRESTTDQYNTNALQRDAPHVEPDFSSQKLQHLEHVMENYTQWLQKLENYIVENMKSEMAQIQQNAVQNHTATMLEIGTSLLSQTAEQTRKLTDVETQVLNQTSRLEIQLLENSLSTYKLEKQLLQQTNEILKIHEKNSLLEHKILEMEGKHKEELDTLKEEKENLQGLVTRQTYIIQELEKQLNRATTNNSVLQKQQLELMDTVHNLVNLCTKEGVLLKGGKREEEKPFRDCADVYQAGFNKSGIYTIYINNMPEPKKVFCNMDVNGGGWTVIQHREDGSLDFQRGWKEYKMGFGNPSGEYWLGNEFIFAITSQRQYMLRIELMDWEGNRAYSQYDRFHIGNEKQNYRLYLKGHTGTAGKQSSLILHGADFSTKDADNDNCMCKCALMLTGGWWFDACGPSNLNGMFYTAGQNHGKLNGIKWHYFKGPSYSLRSTTMMIRPLDF
- ability of recombinant RTK ligand to confer resistance (A2058, PD184352 - 1 uM, ligand 1.56 ng/ml): 1.02
- ability of recombinant RTK ligand to confer resistance (A2058, PD184352 - 1 uM, ligand 6.25 ng/ml): 1.03
- ability of recombinant RTK ligand to confer resistance (A2058, PD184352 - 1 uM, ligand 25 ng/ml): 0.96
- ability of recombinant RTK ligand to confer resistance (A2058, PD184352 - 1 uM, ligand 100 ng/ml): 0.99
- ability of recombinant RTK ligand to confer resistance (A2058, PD184352 - 1 uM, ligand 400 ng/ml): 0.90
- ability of recombinant RTK ligand to confer resistance (A2058, PLX4720 - 2 uM, ligand 1.56 ng/ml): 1.02
- ability of recombinant RTK ligand to confer resistance (A2058, PLX4720 - 2 uM, ligand 6.25 ng/ml): 1.02
- ability of recombinant RTK ligand to confer resistance (A2058, PLX4720 - 2 uM, ligand 25 ng/ml): 0.91
- ability of recombinant RTK ligand to confer resistance (A2058, PLX4720 - 2 uM, ligand 100 ng/ml): 0.97
- ability of recombinant RTK ligand to confer resistance (A2058, PLX4720 - 2 uM, ligand 400 ng/ml): 0.96
- ability of recombinant RTK ligand to confer resistance (C32, PD184352 - 1 uM, ligand 1.56 ng/ml): 1.08
- ability of recombinant RTK ligand to confer resistance (C32, PD184352 - 1 uM, ligand 6.25 ng/ml): 1.07
- ability of recombinant RTK ligand to confer resistance (C32, PD184352 - 1 uM, ligand 25 ng/ml): 1.02
- ability of recombinant RTK ligand to confer resistance (C32, PD184352 - 1 uM, ligand 100 ng/ml): 1.07
- ability of recombinant RTK ligand to confer resistance (C32, PD184352 - 1 uM, ligand 400 ng/ml): 0.98
- ability of recombinant RTK ligand to confer resistance (C32, PLX4720 - 2 uM, ligand 1.56 ng/ml): 1.20
- ability of recombinant RTK ligand to confer resistance (C32, PLX4720 - 2 uM, ligand 6.25 ng/ml): 1.09
- ability of recombinant RTK ligand to confer resistance (C32, PLX4720 - 2 uM, ligand 25 ng/ml): 1.14
- ability of recombinant RTK ligand to confer resistance (C32, PLX4720 - 2 uM, ligand 100 ng/ml): 1.08
- ability of recombinant RTK ligand to confer resistance (C32, PLX4720 - 2 uM, ligand 400 ng/ml): 0.99
- ability of recombinant RTK ligand to confer resistance (Colo 829, PD184352 - 1 uM, ligand 1.56 ng/ml): 0.94
- ability of recombinant RTK ligand to confer resistance (Colo 829, PD184352 - 1 uM, ligand 6.25 ng/ml): 0.97
- ability of recombinant RTK ligand to confer resistance (Colo 829, PD184352 - 1 uM, ligand 25 ng/ml): 0.97
- ability of recombinant RTK ligand to confer resistance (Colo 829, PD184352 - 1 uM, ligand 100 ng/ml): 0.93
- ability of recombinant RTK ligand to confer resistance (Colo 829, PD184352 - 1 uM, ligand 400 ng/ml): 0.97
- ability of recombinant RTK ligand to confer resistance (Colo 829, PLX4720 - 2 uM, ligand 1.56 ng/ml): 0.93
- ability of recombinant RTK ligand to confer resistance (Colo 829, PLX4720 - 2 uM, ligand 6.25 ng/ml): 0.97
- ability of recombinant RTK ligand to confer resistance (Colo 829, PLX4720 - 2 uM, ligand 25 ng/ml): 0.95
- ability of recombinant RTK ligand to confer resistance (Colo 829, PLX4720 - 2 uM, ligand 100 ng/ml): 0.94
- ability of recombinant RTK ligand to confer resistance (Colo 829, PLX4720 - 2 uM, ligand 400 ng/ml): 1.05
- ability of recombinant RTK ligand to confer resistance (G-361, PD184352 - 1 uM, ligand 1.56 ng/ml): 0.98
- ability of recombinant RTK ligand to confer resistance (G-361, PD184352 - 1 uM, ligand 6.25 ng/ml): 0.96
- ability of recombinant RTK ligand to confer resistance (G-361, PD184352 - 1 uM, ligand 25 ng/ml): 0.92
- ability of recombinant RTK ligand to confer resistance (G-361, PD184352 - 1 uM, ligand 100 ng/ml): 0.95
- ability of recombinant RTK ligand to confer resistance (G-361, PD184352 - 1 uM, ligand 400 ng/ml): 0.75
- ability of recombinant RTK ligand to confer resistance (G-361, PLX4720 - 2 uM, ligand 1.56 ng/ml): 1.02
- ability of recombinant RTK ligand to confer resistance (G-361, PLX4720 - 2 uM, ligand 6.25 ng/ml): 0.96
- ability of recombinant RTK ligand to confer resistance (G-361, PLX4720 - 2 uM, ligand 25 ng/ml): 0.97
- ability of recombinant RTK ligand to confer resistance (G-361, PLX4720 - 2 uM, ligand 100 ng/ml): 0.83
- ability of recombinant RTK ligand to confer resistance (G-361, PLX4720 - 2 uM, ligand 400 ng/ml): 0.84
- ability of recombinant RTK ligand to confer resistance (SK-MEL-5, PD184352 - 1 uM, ligand 1.56 ng/ml): 1.03
- ability of recombinant RTK ligand to confer resistance (SK-MEL-5, PD184352 - 1 uM, ligand 6.25 ng/ml): 0.93
- ability of recombinant RTK ligand to confer resistance (SK-MEL-5, PD184352 - 1 uM, ligand 25 ng/ml): 0.95
- ability of recombinant RTK ligand to confer resistance (SK-MEL-5, PD184352 - 1 uM, ligand 100 ng/ml): 0.92
- ability of recombinant RTK ligand to confer resistance (SK-MEL-5, PD184352 - 1 uM, ligand 400 ng/ml): 0.87
- ability of recombinant RTK ligand to confer resistance (SK-MEL-5, PLX4720 - 2 uM, ligand 1.56 ng/ml): 1.05
- ability of recombinant RTK ligand to confer resistance (SK-MEL-5, PLX4720 - 2 uM, ligand 6.25 ng/ml): 1.02
- ability of recombinant RTK ligand to confer resistance (SK-MEL-5, PLX4720 - 2 uM, ligand 25 ng/ml): 0.98
- ability of recombinant RTK ligand to confer resistance (SK-MEL-5, PLX4720 - 2 uM, ligand 100 ng/ml): 1.03
- ability of recombinant RTK ligand to confer resistance (SK-MEL-5, PLX4720 - 2 uM, ligand 400 ng/ml): 1.04
- ability of recombinant RTK ligand to confer resistance (SK-MEL-28, PD184352 - 1 uM, ligand 1.56 ng/ml): 1.09
- ability of recombinant RTK ligand to confer resistance (SK-MEL-28, PD184352 - 1 uM, ligand 6.25 ng/ml): 1.04
- ability of recombinant RTK ligand to confer resistance (SK-MEL-28, PD184352 - 1 uM, ligand 25 ng/ml): 1.12
- ability of recombinant RTK ligand to confer resistance (SK-MEL-28, PD184352 - 1 uM, ligand 100 ng/ml): 0.98
- ability of recombinant RTK ligand to confer resistance (SK-MEL-28, PD184352 - 1 uM, ligand 400 ng/ml): 0.96
- ability of recombinant RTK ligand to confer resistance (SK-MEL-28, PLX4720 - 2 uM, ligand 1.56 ng/ml): 1.05
- ability of recombinant RTK ligand to confer resistance (SK-MEL-28, PLX4720 - 2 uM, ligand 6.25 ng/ml): 0.96
- ability of recombinant RTK ligand to confer resistance (SK-MEL-28, PLX4720 - 2 uM, ligand 25 ng/ml): 1.02
- ability of recombinant RTK ligand to confer resistance (SK-MEL-28, PLX4720 - 2 uM, ligand 100 ng/ml): 0.96
- ability of recombinant RTK ligand to confer resistance (SK-MEL-28, PLX4720 - 2 uM, ligand 400 ng/ml): 0.99
